Data taken from patent EP0647275B2 (Mount Sinai School of Medicine, priority 1992, dated 1994).
Blank lines part the entries; values can stand above or below the compound they belong to. Non-standard residues stand in square brackets, D forms with d. Residues, ends and D or L forms follow the SMILES beside them. d(pGlu) = O=C1CC[C@H](C(=O)O)N1; pGlu = O=C1CC[C@@H](C(=O)O)N1

What was measured:
human GnRHR [1] = molecular target: T1, human GnRHR (Homo sapiens, UniProt P30968); experiment: Inositol phosphate production in COS-1 cells transfected with pSV2A-human GnRH-R; assay type: cell-based; conditions: GnRH 10^-8 M; read-out: IC50, inhibition of GnRH-stimulated inositol phosphate production
T1 construct: The human GnRH-R cDNA was subcloned into an expression vector, pSV2A, containing an SV40 early promoter; expressed in transfected cells; host or cells: COS-1 cells, transient DEAE-dextran transfection with pSV2A-human GnRH-R
T1 sequence (P30968 1-328): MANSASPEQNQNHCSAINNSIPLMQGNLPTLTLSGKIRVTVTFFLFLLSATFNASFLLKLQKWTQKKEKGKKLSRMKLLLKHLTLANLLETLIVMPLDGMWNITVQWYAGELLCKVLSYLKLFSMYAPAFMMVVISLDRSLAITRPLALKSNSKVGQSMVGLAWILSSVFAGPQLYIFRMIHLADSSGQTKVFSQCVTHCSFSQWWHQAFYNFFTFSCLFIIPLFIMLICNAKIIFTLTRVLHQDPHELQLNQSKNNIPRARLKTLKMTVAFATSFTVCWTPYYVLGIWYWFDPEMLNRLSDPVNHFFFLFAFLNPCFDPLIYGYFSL
Experimental: For studies on inositol phosphate production, 1.8 x 10^5 cells/well (12-well plates) were transfected with 1.5 µg DNA. Cells were assayed 48 hours after transfection.
Accumulation of [^3H]IP in the presence of LiCl was used as an index of inositol phosphate turnover. […] The reaction was terminated by the addition of a perchloric acid solution and phytic acid. After neutralizing with KOH, the inositol phosphates were separated on a Dowex ion exchange column and counted.

human GnRHR [2] = molecular target: T1, human GnRHR; experiment: 125I-GnRH-A receptor binding, membranes of COS-1 cells transfected with pSV2A-human GnRH-R; conditions: membranes from transfected COS-1 cells; read-out: dissociation constant, displacement of GnRH-A
GnRH-R = molecular target: T2, GnRH-R (Mus musculus, UniProt Q01776); experiment: 125I-GnRH-A radioligand binding assay, αT3-1 cell membranes; conditions: read-out: Kd, displacement of 125I-GnRH-A
T2 construct: similar Kds of 4.5 and 2.9 nM in WZ25 RNA-injected oocyte membranes and αT3-1 cell membranes respectively; endogenous in cells; host or cells: αT3-1 mouse gonadotrope cell membranes, combined with membranes from uninjected oocytes
T2 sequence (Q01776 1-327): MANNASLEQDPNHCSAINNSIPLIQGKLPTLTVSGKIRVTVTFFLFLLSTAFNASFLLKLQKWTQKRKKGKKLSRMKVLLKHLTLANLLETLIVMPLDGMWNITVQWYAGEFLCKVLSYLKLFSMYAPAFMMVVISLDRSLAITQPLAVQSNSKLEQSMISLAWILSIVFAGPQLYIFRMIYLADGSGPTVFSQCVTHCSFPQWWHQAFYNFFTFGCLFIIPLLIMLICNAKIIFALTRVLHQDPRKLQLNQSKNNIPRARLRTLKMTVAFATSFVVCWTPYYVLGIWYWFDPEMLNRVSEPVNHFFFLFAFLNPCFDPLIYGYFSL

mouse GnRH-R [3] = molecular target: T3, mouse GnRH-R (Mus musculus, UniProt Q01776); experiment: 125I-GnRH-A radioligand binding assay, membranes of WZ25 RNA-injected oocytes; conditions: WZ25 RNA-injected oocyte membranes; read-out: Kd, displacement of 125I-GnRH-A
T3 construct: The longest open reading frame encodes a 327 amino acid protein; expressed in transfected cells; host or cells: Xenopus laevis oocytes injected with capped synthetic WZ25 RNA transcript
T3 sequence (Q01776 1-327): T2 sequence (Q01776 1-327)
Experimental: For membrane preparation, 500 oocytes were each injected with 2.5 ng synthetic WZ25 RNA.

mouse GnRH-R [4] = molecular target: T3, mouse GnRH-R; experiment: Electrophysiological response of Xenopus oocytes injected with WZ25 RNA transcript (two-electrode voltage clamp); assay type: cell-based; conditions: for response of RNA-injected oocytes to agonist: buserelin 100 nM
Experimental: Adult female Xenopus laevis (Nasco, Ft. Atkinson, WI) were kept at 18-20°C and a day/night cycle of 15h/9h. […] Peptide ligands were diluted in the perfusion buffer and introduced into the bath. The clamp current was recorded using a chart recorder. Reversal potentials were determined by continuous ramping from -70 to +10 mV over 2 seconds with and without agonist through an IBM PC/AT system using the TL-1 interface and pCLAMP software from Axon Instruments (Burlingame, CA).
WZ25 in pBluescript II SK+ (Stratagene) was linearized and capped RNA transcript synthesized using T3 RNA polymerase (Stratagene).

human GnRHR [5] = molecular target: T1, human GnRHR; experiment: Electrophysiological response of Xenopus oocytes injected with LC27-4 RNA transcript; assay type: cell-based; conditions: 2 x 10^-7 M agonist; LC27-4 RNA-injected oocytes
Experimental: Construct LC27-4 was linearized and capped RNA transcript synthesized using T3 RNA polymerase. Oocyte preparation and electrophysiology were performed as previously described (Sealfon et al., 1990, Mol. Endocrinol. 4:119-124). Cells were injected with 1-10 ng of synthetic transcript and electrophysiology recorded via two-electrode voltage clamp 48 hours later. All agonists and antagonists were applied at a concentration of 0.2 µM.

[6] = molecular target: human gonadotropin-releasing hormone receptor (GnRH-R), clone LC27-4 (human); experiment: cell-based or functional assay
[7] = molecular target: mouse gonadotropin-releasing hormone receptor (GnRH-R), clone WZ25 (mouse); experiment: cell-based or functional assay
[8] = molecular target: human gonadotropin-releasing hormone receptor (GnRH-R), clone LC27-4 (human); experiment: calculated from the IC50 of inhibition of GnRH-stimulated inositol phosphate production in COS-1 cells transfected with human GnRH-R
[9] = molecular target: human gonadotropin-releasing hormone receptor (GnRH-R), clone LC27-4 (human); experiment: displacement of 125I-GnRH-A, membranes of COS-1 cells transfected with human GnRH-R
[10] = molecular target: mouse gonadotropin-releasing hormone receptor (GnRH-R), clone WZ25 (mouse); experiment: radioligand binding of 125I-GnRH-A to membranes of WZ25 RNA-injected oocytes; non-specific binding with 10^-6 M GnRH analogue was 662 cpm
[11] = molecular target: mouse gonadotropin-releasing hormone receptor (GnRH-R), clone WZ25 (mouse); experiment: displacement of 125I-GnRH-A by GnRH-A, membranes of WZ25 RNA-injected oocytes
[12] = molecular target: mouse gonadotropin-releasing hormone receptor (GnRH-R), clone WZ25 (mouse); experiment: displacement of 125I-GnRH-A by GnRH-A, alphaT3-1 cell membranes (endogenous mouse receptor)

IC50 (human GnRHR [1]): 6.7 nM
Compound: [Ac-D-NaI^1,D-α-4-ClPhe^2,D-Pal^3,D-Arg^6, D-Ala^10]GnRH [antagonist 13]

Kd (human GnRHR [2]): 8.4 nM
IC50 (human GnRHR [1]): 105 nM
Compound: CC(C)C[C@H](NC(=O)[C@@H](Cc1c[nH]c2ccccc12)NC(=O)[C@H](Cc1ccc(O)cc1)NC(=O)[C@H](CO)NC(=O)[C@@H](Cc1c[nH]c2ccccc12)NC(=O)[C@@H](Cc1ccccc1)NC(=O)[C@H]1CCC(=O)N1)C(=O)N[C@@H](CCCNC(=N)N)C(=O)N1CCC[C@H]1C(=O)NCC(N)=O [antagonist 5, [D-pGlu^1,D-Phe^2,D-Trp^3,6]GnRH] ([d(pGlu)][dF][dW]SY[dW]LRPG-NH2)

Compound: CCNC(=O)[C@@H]1CCCN1C(=O)[C@H](CCCNC(=N)N)NC(=O)[C@H](CC(C)C)N(C)C(=O)[C@@H](C)NC(=O)[C@H](Cc1ccc(O)cc1)NC(=O)[C@H](CO)NC(=O)[C@H](Cc1c[nH]c2ccccc12)NC(=O)[C@H](Cc1cnc[nH]1)NC(=O)[C@@H]1CCC(=O)N1 [GnRH-A, [D-Ala^6, NaMe-Leu^7, Pro^9-NHEt]GnRH]
Kd (human GnRHR [2]): 0.97 nM
Kd (GnRH-R): 2.9 nM
Kd (mouse GnRH-R [3]): 4.5 nM

Compound: D-Ser(But)^6,Pro^9-N-ethylamide GnRH [buserelin]
response of RNA-injected oocytes to agonist (mouse GnRH-R [4]; WZ25 RNA-injected oocytes): elicited a depolarizing current
response of RNA-injected oocytes to agonist (human GnRHR [5]): large depolarizing currents

EC50 of inositol phosphate production, COS-1 cells transfected with human GnRH-R [6]: 3 nM
increase in phosphoinositol metabolism at maximal receptor stimulation, COS-1 cells transfected with human GnRH-R [6]: 8 fold
response to GnRH alone (clamp current) in WZ25 RNA-injected oocytes [7]: 4760 nA
Compound: gonadotropin-releasing hormone (GnRH) (from UniProt P01148 24-92) (peptide)

Kd [8]: 3.6 nM
IC50 of inhibition of GnRH-stimulated (10^-8 M) inositol phosphate production, transfected COS-1 cells [6]: 105 nM
Kd [9]: 8.4 nM
Compound: antagonist 5: [D-pGlu^1,D-Phe^2,D-Trp^3,6]GnRH (from UniProt P01148 24-92) (peptide)

Compound: CC(C)C[C@H](NC(=O)[C@@H](Cc1ccccc1)NC(=O)[C@H](Cc1ccc(O)cc1)NC(=O)[C@H](CO)NC(=O)[C@@H]1CCCN1C(=O)[C@@H](Cc1ccccc1)NC(=O)[C@@H]1CCC(=O)N1)C(=O)N[C@@H](CCCNC(=N)N)C(=O)N1CCC[C@H]1C(=O)NCC(N)=O [[D-Phe^2.6, Pro^3]GnRH, [D-Phe^2.6,Pro^3]-GnRH] ([pGlu][dF]PSY[dF]LRPG-NH2)
response to GnRH in the presence of equimolar antagonist (mouse GnRH-R [4]; WZ25 RNA-injected oocytes, n=5): 1880±551 nA
reduction in the response to GnRH (mouse GnRH-R [4]; equimolar antagonist, in comparison with the response to GnRH alone): 60%

Compound: CC(C)C[C@H](NC(=O)CNC(=O)[C@H](Cc1ccc(O)cc1)NC(=O)[C@H](CO)NC(=O)[C@H](Cc1c[nH]c2ccccc12)NC(=O)[C@H](Cc1cnc[nH]1)NC(=O)[C@@H]1CCC(=O)N1)C(=O)N[C@@H](CCCNC(=N)N)C(=O)N1CCC[C@H]1C(=O)NCC(N)=O [GnRH, gonadotropin-releasing hormone]
response of RNA-injected oocytes to agonist (mouse GnRH-R [4]; WZ25 RNA-injected oocytes): large depolarizing response
response to GnRH alone (mouse GnRH-R [4]; WZ25 RNA-injected oocytes, n=4): 4756±1082 nA
Vr of the current elicited by GnRH (mouse GnRH-R [4]; oocytes injected with WZ25 RNA transcript, n=7): -27±0.79 mV
response of RNA-injected oocytes to agonist (human GnRHR [5]): large depolarizing currents

reduction in the response to GnRH in the presence of equimolar antagonist, WZ25 RNA-injected oocytes [7]: 60%
response to GnRH (clamp current) in the presence of equimolar antagonist, WZ25 RNA-injected oocytes [7]: 1880 nA
Compound: GnRH antagonist [D-Phe^2.6,Pro^3]-GnRH (from UniProt P01148 24-92) (peptide)

Kd [8]: 0.21 nM
IC50 of inhibition of GnRH-stimulated (10^-8 M) inositol phosphate production, transfected COS-1 cells [6]: 6.7 nM
Compound: antagonist 13: [Ac-D-NaI^1,D-α-4-ClPhe^2,D-Pal^3,D-Arg^6, D-Ala^10]GnRH (from UniProt P01148 24-92) (peptide)

Bo (maximal binding) [10]: 1430 cpm
Kd [11]: 4.5 nM
Kd [12]: 2.9 nM
Kd [9]: 0.97 nM
Compound: [D-Ala^6, NaMe-Leu^7, Pro^9-NHEt]GnRH (GnRH-A) (from UniProt P01148 24-92) (peptide)
